{
  "source": "patent US20170327598A1",
  "about": "(published 2017)",
  "binders": {"B1": {"name": "anti-STAT3 VHH13 (SEQ ID NO:3) sdAb (VHH)", "VHH": "HVQLVESGGGSVQAGGSLRLSCAASGANGGRSCMGWFRQVPGKEREGVSGISTGGLITYYADSVKGRFTISQDNTKNTLYLQMNSLKPEDTAMYYCATSRFDCYRGSWFNRYMYNSWGQGTQVTVSS"}},
  "experiment_in_all_cases": "sandwich ELISA, STAT protein coated at 0.5 µg/mL",
  "key": {"[1]": {"molecular_target": "T1, STAT 3 protein (UniProt P40763 1-770, limits assumed)"}, "[2]": {"molecular_target": "T2, STAT 5a protein (UniProt P42229 1-794, limits assumed)", "T2 sequence (looked up)": "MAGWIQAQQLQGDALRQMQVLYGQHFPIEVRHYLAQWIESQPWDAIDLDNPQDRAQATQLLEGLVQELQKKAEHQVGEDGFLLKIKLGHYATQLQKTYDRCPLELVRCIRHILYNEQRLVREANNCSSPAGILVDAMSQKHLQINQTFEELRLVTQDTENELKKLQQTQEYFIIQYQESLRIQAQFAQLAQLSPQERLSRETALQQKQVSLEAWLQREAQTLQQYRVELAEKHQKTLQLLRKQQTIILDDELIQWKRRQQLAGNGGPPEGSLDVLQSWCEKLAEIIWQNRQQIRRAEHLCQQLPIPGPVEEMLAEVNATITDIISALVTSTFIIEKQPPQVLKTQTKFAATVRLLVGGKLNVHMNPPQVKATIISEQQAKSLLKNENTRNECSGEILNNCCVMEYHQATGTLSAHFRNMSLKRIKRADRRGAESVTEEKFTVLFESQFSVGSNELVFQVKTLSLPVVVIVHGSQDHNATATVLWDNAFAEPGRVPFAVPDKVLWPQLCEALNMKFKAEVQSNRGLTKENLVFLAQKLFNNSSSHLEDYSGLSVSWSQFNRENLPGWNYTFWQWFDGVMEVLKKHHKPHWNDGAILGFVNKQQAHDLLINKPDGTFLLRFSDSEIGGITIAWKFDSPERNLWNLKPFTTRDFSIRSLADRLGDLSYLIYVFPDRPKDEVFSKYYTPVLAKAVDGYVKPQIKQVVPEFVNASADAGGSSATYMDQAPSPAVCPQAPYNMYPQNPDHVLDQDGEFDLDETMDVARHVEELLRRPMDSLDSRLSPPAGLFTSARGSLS"}, "[3]": {"molecular_target": "T3, STAT 2 protein (UniProt P52630 1-851, limits assumed)", "T3 sequence (P52630 whole entry)": "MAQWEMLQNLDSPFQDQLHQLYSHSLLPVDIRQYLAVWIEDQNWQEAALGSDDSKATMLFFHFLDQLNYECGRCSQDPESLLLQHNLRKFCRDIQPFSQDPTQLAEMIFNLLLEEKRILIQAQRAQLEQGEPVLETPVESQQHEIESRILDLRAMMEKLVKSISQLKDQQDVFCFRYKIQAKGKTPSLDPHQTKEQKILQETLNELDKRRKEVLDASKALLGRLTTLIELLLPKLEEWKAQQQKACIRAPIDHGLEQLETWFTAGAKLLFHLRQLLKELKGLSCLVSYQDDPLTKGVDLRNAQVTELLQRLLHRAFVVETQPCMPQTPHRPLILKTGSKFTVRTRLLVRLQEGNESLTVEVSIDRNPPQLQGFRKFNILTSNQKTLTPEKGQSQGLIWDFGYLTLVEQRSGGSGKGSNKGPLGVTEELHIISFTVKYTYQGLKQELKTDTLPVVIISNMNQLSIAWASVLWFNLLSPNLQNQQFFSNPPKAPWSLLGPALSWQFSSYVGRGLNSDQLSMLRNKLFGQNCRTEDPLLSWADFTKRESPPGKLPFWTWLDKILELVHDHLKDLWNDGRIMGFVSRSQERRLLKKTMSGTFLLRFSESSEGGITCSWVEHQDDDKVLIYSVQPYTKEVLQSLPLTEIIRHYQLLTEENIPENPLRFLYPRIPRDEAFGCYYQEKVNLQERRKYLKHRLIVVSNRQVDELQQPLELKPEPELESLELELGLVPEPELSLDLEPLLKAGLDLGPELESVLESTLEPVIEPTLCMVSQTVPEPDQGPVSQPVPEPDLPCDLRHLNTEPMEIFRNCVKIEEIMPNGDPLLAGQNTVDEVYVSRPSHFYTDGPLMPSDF"}, "[4]": {"molecular_target": "T4, STAT 4 protein (UniProt Q14765 1-748, limits assumed)", "T4 sequence (looked up)": "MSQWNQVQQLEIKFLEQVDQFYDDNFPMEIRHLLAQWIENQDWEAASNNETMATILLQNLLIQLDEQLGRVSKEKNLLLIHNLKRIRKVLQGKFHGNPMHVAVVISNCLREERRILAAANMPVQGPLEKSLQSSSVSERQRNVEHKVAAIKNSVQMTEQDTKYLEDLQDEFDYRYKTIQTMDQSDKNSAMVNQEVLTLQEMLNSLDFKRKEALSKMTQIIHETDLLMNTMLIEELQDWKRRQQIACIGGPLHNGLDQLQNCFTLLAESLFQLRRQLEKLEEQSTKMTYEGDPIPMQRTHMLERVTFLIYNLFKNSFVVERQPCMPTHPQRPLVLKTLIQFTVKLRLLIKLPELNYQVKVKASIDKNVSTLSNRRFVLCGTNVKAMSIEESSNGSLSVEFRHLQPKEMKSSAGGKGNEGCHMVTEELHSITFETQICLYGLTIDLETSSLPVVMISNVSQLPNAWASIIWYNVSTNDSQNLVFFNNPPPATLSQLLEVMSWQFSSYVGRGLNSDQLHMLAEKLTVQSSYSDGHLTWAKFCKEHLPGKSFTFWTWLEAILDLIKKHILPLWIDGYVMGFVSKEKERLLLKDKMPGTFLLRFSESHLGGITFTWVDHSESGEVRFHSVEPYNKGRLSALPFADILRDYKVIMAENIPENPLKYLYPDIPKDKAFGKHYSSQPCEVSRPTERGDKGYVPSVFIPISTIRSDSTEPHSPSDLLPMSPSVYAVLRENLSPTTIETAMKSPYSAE"}, "[5]": {"molecular_target": "T5, STAT 1 protein (UniProt P42224 1-750, limits assumed)", "T5 sequence (looked up)": "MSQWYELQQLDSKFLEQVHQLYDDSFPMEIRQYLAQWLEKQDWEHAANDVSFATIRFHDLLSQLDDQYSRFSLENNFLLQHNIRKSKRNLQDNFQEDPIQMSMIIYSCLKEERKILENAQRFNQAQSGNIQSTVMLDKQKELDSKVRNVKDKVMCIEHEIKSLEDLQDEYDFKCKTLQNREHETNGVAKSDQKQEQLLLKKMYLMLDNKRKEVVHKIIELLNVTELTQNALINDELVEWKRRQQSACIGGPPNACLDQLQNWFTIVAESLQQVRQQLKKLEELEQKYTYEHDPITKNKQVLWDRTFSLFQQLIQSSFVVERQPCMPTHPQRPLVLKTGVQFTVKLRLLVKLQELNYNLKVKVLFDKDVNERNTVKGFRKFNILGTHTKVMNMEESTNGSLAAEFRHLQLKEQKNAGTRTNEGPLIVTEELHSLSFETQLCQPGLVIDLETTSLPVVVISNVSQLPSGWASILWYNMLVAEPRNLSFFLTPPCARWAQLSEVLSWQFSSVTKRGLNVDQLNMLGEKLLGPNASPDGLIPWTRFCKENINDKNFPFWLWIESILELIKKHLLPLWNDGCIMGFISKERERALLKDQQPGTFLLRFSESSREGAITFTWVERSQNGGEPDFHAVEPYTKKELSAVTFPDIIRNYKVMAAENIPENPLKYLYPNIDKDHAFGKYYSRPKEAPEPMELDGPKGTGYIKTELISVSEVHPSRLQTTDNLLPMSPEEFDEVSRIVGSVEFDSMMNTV"}, "[6]": {"molecular_target": "T1, STAT 3 protein", "remark": "listed apart in the source"}, "[7]": {"molecular_target": "T2, STAT 5a protein", "remark": "listed apart in the source"}, "[8]": {"molecular_target": "T3, STAT 2 protein", "remark": "listed apart in the source"}, "[9]": {"molecular_target": "T1, STAT 3 protein", "remark": "listed apart in the source"}},
  "note": "Read-outs that look alike come from different tables or passages of the source.",
  "data": [
    {"binder": "B1", "values": [
      {"measurement": "Mean OD450", "setting": "[1]", "result": 0.063, "unit": "OD450"},
      {"measurement": "Mean OD450", "setting": "[2]", "result": 0.107, "unit": "OD450"},
      {"measurement": "Mean OD450", "setting": "[3]", "result": 0.023, "unit": "OD450"},
      {"measurement": "Mean OD450", "setting": "[4]", "result": 0.833, "unit": "OD450"},
      {"measurement": "Mean OD450", "setting": "[5]", "result": 0.159, "unit": "OD450"},
      {"measurement": "Mean OD450", "setting": "[6]", "result": 0.431, "unit": "OD450"},
      {"measurement": "Mean OD450", "setting": "[7]", "result": 0.821, "unit": "OD450"},
      {"measurement": "Mean OD450", "setting": "[8]", "result": 0.186, "unit": "OD450"},
      {"measurement": "Mean OD450", "setting": "[9]", "result": 3.67, "unit": "OD450"}
    ]}
  ]
}
